B1: KCNA4 (parent)
chain: YQSGGRLKRPVNVPFDIFTEEVKF

Variants of: B1
Assay: protein stability index of a GFP-peptide fusion (GPS, HEK-293T) (PSI 1-6); higher = more stable
Conditions: c terminus: a fixed tail appended
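Note: lentivirally expressed fusions sorted by FACS into six bins by GFP to DsRed ratio, PSI derived from sequencing read proportions per bin multiplied by bin number.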

Protein stability index: each site, then its substitutions
V13: P 1.53, A 1.47, C 2.18, I 1.75, K 2, Q 1.66, D 1.55, L 1.78, Y 1.88, T 1.51
V22: P 1.54, T 1.96, F 2.06, L 1.99, S 2, A 1.58, N 1.83, G 2.34, Q 2.08, R 1.48, E 2.77, H 1.86, C 1.54, D 2.09, I 1.38
I17: M 1.91, L 2.36, E 2.15, D 2.83, F 2.25, Y 1.99, C 3.62, Q 1.72, W 2.99, K 2.04, H 1.98, A 1.64, T 2.89, V 1.28, P 1.85, G 1.91
F18: N 2.1, E 1.81, I 1.97, A 2.28, D 2.01, Q 2.65, H 2.15, V 1.67, C 1.57, G 2.29, M 2.02, L 2.5, K 1.84
F15: R 2.83, W 2.12, T 2.22, H 2.47, G 1.98, K 2.1, C 2.41, M 3, D 2.6, Y 1.56, E 2.75, I 2.45, P 2.01, S 1.94
S3: Y 1.59, T 2.32, F 1.51, G 2.05, D 3.3, H 2.5, W 2.23, E 2.57, A 1.7, K 2.27, V 1.75, P 1.7, L 2.13, R 1.37
R6: H 2.14, T 2.5, L 1.51, K 1.94, C 1.26, D 2.23, I 1.63, S 1.45, Y 2.51, Q 2.15, G 1.71, V 1.77, E 1.63, P 1.85, A 2.19, N 2.16
G5: W 1.59, E 2.29, S 1.81, D 2.11, C 1.73, Y 1.26, R 1.8, M 1.77, N 1.94, P 2.53, V 1.63, I 1.72, L 1.49, Q 2.08, T 2.7, F 1.6, H 3.03
K23: C 2.33, E 1.05, A 1.35, V 2.42, T 2.36, I 2.65, M 2.17, L 2.53, P 1.44, F 2.99, N 2.3, D 1.82, Q 2.06, H 1.71
K8: W 5.95, Q 2.56, R 2.67, I 2.47, V 1.53, S 1.93, D 2.28, N 2.23
R9: E 2.06, P 1.72, F 1.58, N 2.07, A 2.04, Y 2.38, C 1.63, G 2.31, W 3.37, I 1.65, D 1.99, Q 2.34, H 2.02, M 1.46, T 1.7, K 1.83
V11: D 1.91, E 1.65, T 2.15, L 1.95, R 1.81, Y 2.06, A 2.07, H 1.69, N 2.74, M 2.32, F 3.13, G 1.31, Q 2.36
T19: H 2.83, K 2.66, W 1.41, Y 2.16, F 2.1, G 1.94, N 2.33, D 2.38, S 2.09, V 1.96, P 1.53, I 1.72, Q 1.42
E20: I 1.47, P 2.11, H 1.43, N 2.12, R 1.31, C 2.11, K 1.7, S 1.92, T 1.53, D 2.57
G4: H 2.33, L 2.77, S 1.99, Y 1.27, N 1.73, W 2.56, M 2.08, E 1.99, F 1.71, V 1.78, A 2.09, R 2.14, P 3.26, T 2.2, C 1.74, I 2.36, K 2.12, D 1.96
Y1: R 3.12, P 2.29, L 3.97, S 3, E 3.08, I 1.93, Q 3.33, T 2.88, M 2.69, K 2.88, A 2.82, F 1.6, H 2.88, C 2.81, D 3.12
P14: A 1.37, R 2.19, T 1.51, E 1.42, V 1.56, I 3, N 2.07, G 2.98, D 2.28, Q 3.33, C 2.19, H 1.86
D16: L 1.85, A 1.83, W 2.98, H 1.08, M 1.54, R 2.48, C 1.1, Y 2.11, K 1.57, P 1.52, S 1.21, V 1.55, E 2.08, N 2.03, T 1.29
L7: D 1.95, M 1.56, K 2.15, G 1.84, P 1.99, V 2.28, F 2.4, Q 1.68, T 2.15, E 2.16, A 1.71, Y 1.86, C 1.78, S 2.29, W 1.77, N 1.84, H 1.8
F24: P 2.25, S 2.79, Y 2.89, K 2.49, Q 2.92, R 2.59, I 1.71, E 2.32, T 2.18, M 1.63, C 1.93, N 1.93, V 2.49, W 1.92, D 2.11, G 2.26, H 2.16
N12: A 1.65, Y 1.55, V 1.54, K 3.14, C 1.8, T 2.07, S 2.96, E 1.22, P 1.55, I 1.44, M 2.13, D 2.38
P10: F 2.76, I 1.72, S 1.97, E 1.78, M 1.4, H 1.93, V 2.31, A 2.16, W 1.14, R 1.01, Q 2.2, K 1.4, D 1.38
E21: C 1.7, D 2.37, P 2.13, G 2.36, N 2.63, Y 2.61, H 1.77, F 1.55, K 1.17, V 1.81, M 1.06
Q2: W 1.48, T 1.62, V 3.32, C 2.63, N 2.12, I 1.93, P 2, D 2.97, K 2.14, S 2.58, M 2.56, E 2.73, R 2.22, G 1.77, Y 1.55

Reference: the supplement of paper PMC10567573
